According to patent publication US20250145679A1 (WUXI BIOLOGICS IRELAND, published 2025):

Assays:
IL-2/15Rβ (CD122) ECD = target: T1, IL-2/15Rβ (CD122) ECD (human, UniProt P14784 27-239); experiment: SPR, Biacore 8K, complex captured on anti-human Fc CM5 chip, receptor ECD-His injected
T1 construct: The SPR text names the analyte only as 'W327151-hPro2.ECD.His'; also called Receptor β; IL-15Rβ
T1 sequence: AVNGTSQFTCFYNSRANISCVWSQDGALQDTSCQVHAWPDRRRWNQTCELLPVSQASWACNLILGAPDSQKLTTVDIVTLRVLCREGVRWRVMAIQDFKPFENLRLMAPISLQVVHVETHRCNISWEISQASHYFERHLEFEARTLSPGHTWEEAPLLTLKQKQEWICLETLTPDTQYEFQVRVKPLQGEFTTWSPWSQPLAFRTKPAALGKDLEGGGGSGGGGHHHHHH
Method: IL-15 variants binding affinity to its receptor were detected by SPR using Biacore 8K. Each variant was captured on anti-human Fc immobilized CM5 sensor chip (cytiva). W327151-hPro2.ECD.His at different concentrations were injected over the sensor chip at a flow rate of 30 uL/min for an association phase of 120 s, followed by 120 s dissociation. The chip was then regenerated by 10 mM Glycine-HCl pH 1.5 after each binding cycle.

[1] = target: T2, human lymphoma (HH) cell line (human); experiment: binding to HH cells, dose-dependent (FIG. 5); receptor on the cells not named
T2 construct: Cells, not a defined protein

B1: W327151-TXU1.P1-V0013.uIgG4V322 (Fc fusion)
chain 1: NWVNVISDLKKIEDLIQSMHIDATLYTESDVHPSCKVTAMKCFLLELQVISLESGDASIHDTVENLIILANNSLSSNGNVTESGCKECEELEEKNIKEFLQSFVHIVQMFESKYGPPCPPCPAPEAAGGPSVFLFPPKPKDTLMISRTPEVTCVVVDVSQEDPEVQFNWYVDGVEVHNAKTKPREEQFNSTYRVVSVLTVLHQDWLNGKEYKCKVSNKGLPSSIEKTISKAKGQPREPQVYTLPPCQEEMTKNQVSLWCLVKGFYPSDIAVEWESNGQPENNYKTTPPVLDSDGSFFLYSRLTVDKSRWQEGNVFSCSVMHEALHNHYTQKSLSLSLGK
chain 2: ITCPPPMSVEHADIWVKSYSLYSRERYICNSGFKRKAGTSSLTECVLNKATNVAHWTTPSLKCIRESKYGPPCPPCPAPEAAGGPSVFLFPPKPKDTLMISRTPEVTCVVVDVSQEDPEVQFNWYVDGVEVHNAKTKPREEQFNSTYRVVSVLTVLHQDWLNGKEYKCKVSNKGLPSSIEKTISKAKGQPREPQVCTLPPSQEEMTKNQVSLSCAVKGFYPSDIAVEWESNGQPENNYKTTPPVLDSDGSFFLVSRLTVDKSRWQEGNVFSCSVMHEALHNHYTQKSLSLSLGK
notes: Heterodimeric IL-15/IL-15Ralpha-Fc polypeptide complex; IgG4 Fc with S228P and F234A/L235A, knob-into-hole
Kd (IL-2/15Rβ (CD122) ECD): 7.9 nM | koff (IL-2/15Rβ (CD122) ECD): 0.00483 s⁻¹ | kon (IL-2/15Rβ (CD122) ECD): 612000 M⁻¹ s⁻¹ | EC50 [1]: 91.9 nM
